The target in test [1] is annexin V without any residual amino acids (human) (UniProt P08758). Briefly: high-speed atomic force microscopy (HS-AFM); 1 uM annexin V added to supported lipid bilayers (DOPC:DOPS:biotinyl-DOPE = 7:2:1) on mica; 10 mM HEPES-NaOH pH 7.0, 2 mM CaCl2, 150 mM NaCl; trimers and 2D crystal lattice (p6) on the membrane.
Test [2] deals with N-terminus His-tagged annexin V (human) (UniProt P08758). The test is described as above.

The stoichiometry N is the number of molecules, sites or subunits per partner or assembly. With “annexin V without any residual amino acids (from UniProt P08758 1-320) (natural protein)”, the stoichiometry N in test [1] worked out at 3.

“N-terminus His-tagged annexin V (from UniProt P08758 1-320) (natural protein)” came in with a stoichiometry N in test [2] of 3.

Values taken from article PMC9778525.
